Data published in PMC7837408 (Developmental cell, 2021).

Target: T1, mScarlet-V5-TurboID-Rab9a (human, UniProt P51151 1-201)
T1 sequence (looked up): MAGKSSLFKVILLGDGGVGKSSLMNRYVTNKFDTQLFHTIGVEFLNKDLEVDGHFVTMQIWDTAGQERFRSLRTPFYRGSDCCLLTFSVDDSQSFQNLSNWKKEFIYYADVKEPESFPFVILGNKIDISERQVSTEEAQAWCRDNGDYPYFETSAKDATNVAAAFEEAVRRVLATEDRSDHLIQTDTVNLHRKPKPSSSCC
Assay: proximity labelling

fold Rtn3L biotinylation, WT Rab9a against Rab9aΔFSV: 10 fold
B1: Reticulon-3L (Rtn3L), endogenous (natural protein, human (endogenous in HeLa), UniProt O95197-2 1-1013, looked up)
chain: MAEPSAATQSHSISSSSFGAEPSAPGGGGSPGACPALGTKSCSSSCAEGLSSLCSDEPSSEIMTSSFLSSSEIHNTGLTILHGEKSHVLGSQPILAKEGKDHLDLLDMKKMEKPQGTSNNVSDSSVSLAAGVHCDRPSIPASFPEHPAFLSKKIGQVEEQIDKETKNPNGVSSREAKTALDADDRFTLLTAQKPPTEYSKVEGIYTYSLSPSKVSGDDVIEKDSPESPFEVIIDKAAFDKEFKDSYKESTDDFGSWSVHTDKESSEDISETNDKLFPLRNKEAGRYPMSALLSRQFSHTNAALEEVSRCVNDMHNFTNEILTWDLVPQVKQQTDKSSDCITKTTGLDMSEYNSEIPVVNLKTSTHQKTPVCSIDGSTPITKSTGDWAEASLQQENAITGKPVPDSLNSTKEFSIKGVQGNMQKQDDTLAELPGSPPEKCDSLGSGVATVKVVLPDDHLKDEMDWQSSALGEITEADSSGESDDTVIEDITADTSFENNKIQAEKPVSIPSAVVKTGEREIKEIPSCEREEKTSKNFEELVSDSELHQDQPDILGRSPASEAACSKVPDTNVSLEDVSEVAPEKPITTENPKLPSTVSPNVFNETEFSLNVTTSAYLESLHGKNVKHIDDSSPEDLIAAFTETRDKGIVDSERNAFKAISEKMTDFKTTPPVEVLHENESGGSEIKDIGSKYSEQSKETNGSEPLGVFPTQGTPVASLDLEQEQLTIKALKELGERQVEKSTSAQRDAELPSEEVLKQTFTFAPESWPQRSYDILERNVKNGSDLGISQKPITIRETTRVDAVSSLSKTELVKKHVLARLLTDFSVHDLIFWRDVKKTGFVFGTTLIMLLSLAAFSVISVVSYLILALLSVTISFRIYKSVIQAVQKSEEGHPFKAYLDVDITLSSEAFHNYMNAAMVHINRALKLIIRLFLVEDLVDSLKLAVFMWLMTYVGAVFNGITLLILAELLIFSVPIVYEKYKTQIDHYVGIARDQTKSIVEKIQAKLPGIAKKKAE
modifications: biotinylated by TurboID in cells (sites not given)
